Measurements reported in article PMC2151178.

Target: DdUnc104 (Dictyostelium Unc104), 245-kD kinesin (Dictyostelium discoideum (endogenous in wild-type cells)) (UniProt Q9NGQ2)
Assay: SEC + other: sucrose density gradient velocity sedimentation

stoichiometry N: 2
Substance: DdUnc104 (Dictyostelium Unc104), 245-kD kinesin, Q9NGQ2 1-2205
